Experimental findings from US7399752 are described below.

The assay deals with LS-Rg, chimeric protein of the extracellular domain of human L-selectin joined to the Fc domain of a human G2 immunoglobulin (human) (UniProt P14151). Kind of assay: competition with radio-labeled 2'-F RNA ligand LF1807 for purified LS-Rg.
Sequence of LS-Rg, chimeric protein of the extracellular domain of human L-selectin joined to the Fc domain of a human G2 immunoglobulin (human) (P14151 39-332, change not shown): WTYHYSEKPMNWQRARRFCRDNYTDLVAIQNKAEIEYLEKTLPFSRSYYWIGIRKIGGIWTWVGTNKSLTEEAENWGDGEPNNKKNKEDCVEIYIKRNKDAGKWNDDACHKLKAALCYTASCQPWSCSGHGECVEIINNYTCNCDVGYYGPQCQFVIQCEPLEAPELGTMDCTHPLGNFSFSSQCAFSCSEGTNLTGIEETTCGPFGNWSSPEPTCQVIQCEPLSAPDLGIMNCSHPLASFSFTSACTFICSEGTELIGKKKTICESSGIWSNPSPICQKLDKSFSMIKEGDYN

In turn, “DREG-56, L-selectin specific blocking monoclonal antibody” returned a concentration at which inhibition was complete of 300 nM.
